The labels stand for the following.
B1: Azoarcus group I ribozyme (parent)
chain: GUGCCUUGCGCCGGGAAACCACGCAAGGGAUGGUGUCAAAUUCGGCGAAACCUAAGCGCCCGCCCGGGCGUAUGGCAACGCCGAGCCAAGCUUCGGCGCCUGCGCCGAUGAAGGUGUAGAGACUAGACGGCACCCACCUAAGGCAAACGCUAUGGUGAAGGCAUAGUCCAGGGAGUGGCGAAAGUCACACAAACCGG

The series covers variants of B1. The series is described as follows: reverse-splicing fitness (ratio to wild type); higher = more active; in vitro selection; Mg2+ level not given. Put shortly:
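An in vitro group I ribozyme library with randomized positions was T7-transcribed and gel-purified. In triplicate, 10 pmol RNA in EPPS pH 7.5 was reacted with 50 pmoles of a 30-nt RNA substrate for 1 h at 37 °C across several added MgCl2 levels (1–48 mM), then stopped with EDTA. Products were reverse transcribed from a substrate-complementary primer, PCR-amplified and sequenced (HiSeq 4000). Fitness is a variant's read proportion after selection over that before, normalised to wild type.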
As to GUGCCUUGCGCCGGGAAACCACGCAAGGGAUGGUGUCAAAUUCGGCGAAACCUAAGCGCCCGCCCGGGCGUAUGGCAACGCAGAGCCAAGCUUCGGCGCCUGCGCCGAUGUAGGUGUAGCGACUAGACGGCACCCACCUAAGGCAAACGUUAUGGUGAAGGCAUAGUCCAGGGAGCGGCGAAAGUCACACAAACCGG [C82A A111U A120C C150U U176C], the reverse-splicing fitness is 0.022. Under GUGCCUUGCGCCGGGAAACCACGCAAGGGAUGGUGUCAAAUUCGGCGAAACCUAAGCGCCCGCCCGGGCGUAUGGCAACGCAGAGCCAAGCUUCGGCGCCUGCGCCGAUGUAGGUGUAGCGACUAGACGGCACCCACCUAAGGCAAACGUUAUGGUGAAGGCAUAGUCCAGGGAGAGGCGAAAGUCACACAAACCGG [C82A A111U A120C C150U U176A] stands 0.0125; under GUGCCUUGCGCCGGGAAACCACGCAAGGGAUGGUGUCAAAUUCGGCGAAACCUAAGCGCCCGCCCGGGCGUAUGGCAACGCAGAGCCAAGCUUCGGCGCCUGCGCCGAUGUAGGUGUAGCGACUAGACGGCACCCACCUAAGGCAAACGUUAUGGUGAAGGCAUAGUCGAGGGAGGGGCGAAAGUCACACAAACCGG [C82A A111U A120C C150U C169G U176G], 0.00747; under GUGCCUUGCGCCGGGAAACCACGCAAGGGAUGGUGUCAAAUUCGGCGAAACCUAAGCGCCCGCCCGGGCGUAUGGCAACGCAGAGCCAAGCUUCGGCGCCUGCGCCGAUGUAGGUGUAGCGACUAGACGGCACCCACCUAAGGCAAACGUUAUGGUGAAGGCAUAGUCGAGGGAGCGGCGAAAGUCACACAAACCGG [C82A A111U A120C C150U C169G U176C], 0.0205.

On to GUGCCUUGCGCCGGGAAACCACGCAAGGGAUGGUGUCAAAUUCGGCGAAACCUAAGCGCCCGCCCGGGCGUAUGGCAACGCAGAGCCAAGCUUCGGCGCCUGCGCCGAUGUAGGUGUAGCGACUAGACGGCACCCACCUAAGGCAAACGUUAUGGUGAAGGCAUAGUCGAGGGAGAGGCGAAAGUCACACAAACCGG [C82A A111U A120C C150U C169G U176A], for which the reverse-splicing fitness was found to be 0.0159. Under GUGCCUUGCGCCGGGAAACCACGCAAGGGAUGGUGUCAAAUUCGGCGAAACCUAAGCGCCCGCCCGGGCGUAUGGCAACGCAGAGCCAAGCUUCGGCGCCUGCGCCGAUGUAGGUGUAGCGACUAGACGGCACCCACCUAAGGCAAACGUUAUGGUGAAGGCAUAGUCUAGGGAGAGGCGAAAGUCACACAAACCGG [C82A A111U A120C C150U C169U U176A] stands 0.0156; under GUGCCUUGCGCCGGGAAACCACGCAAGGGAUGGUGUCAAAUUCGGCGAAACCUAAGCGCCCGCCCGGGCGUAUGGCAACGCAGAGCCAAGCUUCGGCGCCUGCGCCGAUGUAGGUGUAGCGACUAGACGGCACCCACCUAAGGCAAACGUUAUGGUGAAGGCAUAGUCUAGGGAGGGGCGAAAGUCACACAAACCGG [C82A A111U A120C C150U C169U U176G], 0.00737. In the case of GUGCCUUGCGCCGGGAAACCACGCAAGGGAUGGUGUCAAAUUCGGCGAAACCUAAGCGCCCGCCCGGGCGUAUGGCAACGCAGAGCCAAGCUUCGGCGCCUGCGCCGAUGUAGGUGUAGCGACUAGACGGCACCCACCUAAGGCAAACGUUAUGGUGAAGGCAUAGUCUAGGGAGCGGCGAAAGUCACACAAACCGG [C82A A111U A120C C150U C169U U176C], the reverse-splicing fitness was 0.0145. Regarding GUGCCUUGCGCCGGGAAACCACGCAAGGGAUGGUGUCAAAUUCGGCGAAACCUAAGCGCCCGCCCGGGCGUAUGGCAACGCAGAGCCAAGCUUCGGCGCCUGCGCCGAUGUAGGUGUAGCGACUAGACGGCACCCACCUAAGGCAAACGCUAUGGUGAAGGCAUAGUCCAGGGAGAGGCGAAAGUCACACAAACCGG [C82A A111U A120C U176A], the reverse-splicing fitness amounted to 0.0152. GUGCCUUGCGCCGGGAAACCACGCAAGGGAUGGUGUCAAAUUCGGCGAAACCUAAGCGCCCGCCCGGGCGUAUGGCAACGCAGAGCCAAGCUUCGGCGCCUGCGCCGAUGUAGGUGUAGCGACUAGACGGCACCCACCUAAGGCAAACGUUAUGGUGAAGGCAUAGUCAAGGGAGGGGCGAAAGUCACACAAACCGG [C82A A111U A120C C150U C169A U176G]: the reverse-splicing fitness turned out to be 0.00841. Under GUGCCUUGCGCCGGGAAACCACGCAAGGGAUGGUGUCAAAUUCGGCGAAACCUAAGCGCCCGCCCGGGCGUAUGGCAACGCAGAGCCAAGCUUCGGCGCCUGCGCCGAUGUAGGUGUAGCGACUAGACGGCACCCACCUAAGGCAAACGUUAUGGUGAAGGCAUAGUCAAGGGAGAGGCGAAAGUCACACAAACCGG [C82A A111U A120C C150U C169A U176A] stands 0.0162. With GUGCCUUGCGCCGGGAAACCACGCAAGGGAUGGUGUCAAAUUCGGCGAAACCUAAGCGCCCGCCCGGGCGUAUGGCAACGCAGAGCCAAGCUUCGGCGCCUGCGCCGAUGUAGGUGUAGCGACUAGACGGCACCCACCUAAGGCAAACGUUAUGGUGAAGGCAUAGUCAAGGGAGCGGCGAAAGUCACACAAACCGG [C82A A111U A120C C150U C169A U176C], the reverse-splicing fitness was determined as 0.0174. As to GUGCCUUGCGCCGGGAAACCACGCAAGGGAUGGUGUCAAAUUCGGCGAAACCUAAGCGCCCGCCCGGGCGUAUGGCAACGCAGAGCCAAGCUUCGGCGCCUGCGCCGAUGUAGGUGUAGCGACUAGACGGCACCCACCUAAGGCAAACGCUAUGGUGAAGGCAUAGUCUAGGGAGAGGCGAAAGUCACACAAACCGG [C82A A111U A120C C169U U176A], the reverse-splicing fitness turned out to be 0.0177.

GUGCCUUGCGCCGGGAAACCACGCAAGGGAUGGUGUCAAAUUCGGCGAAACCUAAGCGCCCGCCCGGGCGUAUGGCAACGCAGAGCCAAGCUUCGGCGCCUGCGCCGAUGUAGGUGUAGCGACUAGACGGCACCCACCUAAGGCAAACGCUAUGGUGAAGGCAUAGUCUAGGGAGCGGCGAAAGUCACACAAACCGG [C82A A111U A120C C169U U176C]: the reverse-splicing fitness is 0.0158. Under GUGCCUUGCGCCGGGAAACCACGCAAGGGAUGGUGUCAAAUUCGGCGAAACCUAAGCGCCCGCCCGGGCGUAUGGCAACGCAGAGCCAAGCUUCGGCGCCUGCGCCGAUGUAGGUGUAGCGACUAGACGGCACCCACCUAAGGCAAACGCUAUGGUGAAGGCAUAGUCUAGGGAGGGGCGAAAGUCACACAAACCGG [C82A A111U A120C C169U U176G] stands 0.00659.

(Values after the RNAGym collection of RNA variant scans (doi:10.1093/molbev/msab373).)
